# B1: EPB41L3 (parent)
# chain: KKFLTLGSKFRYSGRTQAQTRRAS
# Variants of: B1
# Experiment: protein stability index of a GFP-peptide fusion (GPS, HEK-293T) (PSI 1-6); higher = more stable
# Conditions: c terminus: a fixed tail appended
# 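Note: lentivirally expressed fusions sorted by FACS into six bins by GFP to DsRed ratio, PSI derived from sequencing read proportions per bin multiplied by bin number.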
row,Variant,protein stability index
1,KKFLTLHSKFRYSGRTQAQTRRAS [G7H],2.51
2,KKFLTLASKFRYSGRTQAQTRRAS [G7A],2.95
3,KKFLTLKSKFRYSGRTQAQTRRAS [G7K],2.37
4,KKFLTLVSKFRYSGRTQAQTRRAS [G7V],2.26
5,KKFLTLPSKFRYSGRTQAQTRRAS [G7P],3.18
6,KKFLTLNSKFRYSGRTQAQTRRAS [G7N],2.88
7,KKFLTLLSKFRYSGRTQAQTRRAS [G7L],2.25
8,KKFLTLFSKFRYSGRTQAQTRRAS [G7F],2.4
9,KKFLTLQSKFRYSGRTQAQTRRAS [G7Q],2.85
10,KKFLTLDSKFRYSGRTQAQTRRAS [G7D],3.3
11,KKFLTLTSKFRYSGRTQAQTRRAS [G7T],3.58
12,KKTLTLGSKFRYSGRTQAQTRRAS [F3T],3.48
13,KKQLTLGSKFRYSGRTQAQTRRAS [F3Q],2.95
14,KKKLTLGSKFRYSGRTQAQTRRAS [F3K],3.65
15,KKPLTLGSKFRYSGRTQAQTRRAS [F3P],3.6
16,KKNLTLGSKFRYSGRTQAQTRRAS [F3N],3.59
17,KKELTLGSKFRYSGRTQAQTRRAS [F3E],3.11
18,KKMLTLGSKFRYSGRTQAQTRRAS [F3M],3.56
19,KKSLTLGSKFRYSGRTQAQTRRAS [F3S],3.78
20,KKCLTLGSKFRYSGRTQAQTRRAS [F3C],3.76
21,KKVLTLGSKFRYSGRTQAQTRRAS [F3V],3.07
22,KKDLTLGSKFRYSGRTQAQTRRAS [F3D],3.81
23,KKRLTLGSKFRYSGRTQAQTRRAS [F3R],4.15
24,KKYLTLGSKFRYSGRTQAQTRRAS [F3Y],3.58

row,Variant,protein stability index
1,KKALTLGSKFRYSGRTQAQTRRAS [F3A],3.62
2,KKHLTLGSKFRYSGRTQAQTRRAS [F3H],3.82
3,KKLLTLGSKFRYSGRTQAQTRRAS [F3L],3.22
4,KKILTLGSKFRYSGRTQAQTRRAS [F3I],3.32
5,HKFLTLGSKFRYSGRTQAQTRRAS [K1H],2.56
6,VKFLTLGSKFRYSGRTQAQTRRAS [K1V],2.25
7,GKFLTLGSKFRYSGRTQAQTRRAS [K1G],3.83
8,AKFLTLGSKFRYSGRTQAQTRRAS [K1A],2.2
9,IKFLTLGSKFRYSGRTQAQTRRAS [K1I],2.42
10,SKFLTLGSKFRYSGRTQAQTRRAS [K1S],2.76
11,YKFLTLGSKFRYSGRTQAQTRRAS [K1Y],2.23
12,CKFLTLGSKFRYSGRTQAQTRRAS [K1C],2.56
13,NKFLTLGSKFRYSGRTQAQTRRAS [K1N],3.5
14,PKFLTLGSKFRYSGRTQAQTRRAS [K1P],2.18
15,LKFLTLGSKFRYSGRTQAQTRRAS [K1L],1.91
16,DKFLTLGSKFRYSGRTQAQTRRAS [K1D],2.43
17,MKFLTLGSKFRYSGRTQAQTRRAS [K1M],4.46
18,WKFLTLGSKFRYSGRTQAQTRRAS [K1W],1.91
19,RKFLTLGSKFRYSGRTQAQTRRAS [K1R],3.7
20,TKFLTLGSKFRYSGRTQAQTRRAS [K1T],2.38
21,FKFLTLGSKFRYSGRTQAQTRRAS [K1F],2.45
22,KGFLTLGSKFRYSGRTQAQTRRAS [K2G],2.59
23,KAFLTLGSKFRYSGRTQAQTRRAS [K2A],2.14
24,KRFLTLGSKFRYSGRTQAQTRRAS [K2R],4.02

row,Variant,protein stability index
1,KVFLTLGSKFRYSGRTQAQTRRAS [K2V],2.23
2,KFFLTLGSKFRYSGRTQAQTRRAS [K2F],4.04
3,KNFLTLGSKFRYSGRTQAQTRRAS [K2N],2.85
4,KPFLTLGSKFRYSGRTQAQTRRAS [K2P],2.84
5,KTFLTLGSKFRYSGRTQAQTRRAS [K2T],2.44
6,KSFLTLGSKFRYSGRTQAQTRRAS [K2S],2.74
7,KLFLTLGSKFRYSGRTQAQTRRAS [K2L],1.57
8,KCFLTLGSKFRYSGRTQAQTRRAS [K2C],2.6
9,KWFLTLGSKFRYSGRTQAQTRRAS [K2W],2.31
10,KIFLTLGSKFRYSGRTQAQTRRAS [K2I],2.54
11,KYFLTLGSKFRYSGRTQAQTRRAS [K2Y],2.22
12,KQFLTLGSKFRYSGRTQAQTRRAS [K2Q],2.06
13,KEFLTLGSKFRYSGRTQAQTRRAS [K2E],2.47
14,KDFLTLGSKFRYSGRTQAQTRRAS [K2D],2.44
15,KHFLTLGSKFRYSGRTQAQTRRAS [K2H],2.4
16,KKFLTLGNKFRYSGRTQAQTRRAS [S8N],2.89
17,KKFLTLGGKFRYSGRTQAQTRRAS [S8G],2.81
18,KKFLTLGFKFRYSGRTQAQTRRAS [S8F],2.43
19,KKFLTLGKKFRYSGRTQAQTRRAS [S8K],2.56
20,KKFLTLGLKFRYSGRTQAQTRRAS [S8L],2.17
21,KKFLTLGPKFRYSGRTQAQTRRAS [S8P],2.16
22,KKFLTLGQKFRYSGRTQAQTRRAS [S8Q],2.78
23,KKFLTLGDKFRYSGRTQAQTRRAS [S8D],2.86
24,KKFLTLGIKFRYSGRTQAQTRRAS [S8I],2.33

row,Variant,protein stability index
1,KKFLTLGMKFRYSGRTQAQTRRAS [S8M],2.74
2,KKFLTLGEKFRYSGRTQAQTRRAS [S8E],3.26
3,KKFLTLGHKFRYSGRTQAQTRRAS [S8H],3.01
4,KKFLTLGAKFRYSGRTQAQTRRAS [S8A],3.02
5,KKFLTLGCKFRYSGRTQAQTRRAS [S8C],2.04
6,KKFDTLGSKFRYSGRTQAQTRRAS [L4D],3.63
7,KKFFTLGSKFRYSGRTQAQTRRAS [L4F],2.99
8,KKFGTLGSKFRYSGRTQAQTRRAS [L4G],3.36
9,KKFMTLGSKFRYSGRTQAQTRRAS [L4M],3.19
10,KKFQTLGSKFRYSGRTQAQTRRAS [L4Q],2.38
11,KKFETLGSKFRYSGRTQAQTRRAS [L4E],2.85
12,KKFHTLGSKFRYSGRTQAQTRRAS [L4H],3.44
13,KKFITLGSKFRYSGRTQAQTRRAS [L4I],2.56
14,KKFCTLGSKFRYSGRTQAQTRRAS [L4C],3.06
15,KKFSTLGSKFRYSGRTQAQTRRAS [L4S],2.91
16,KKFNTLGSKFRYSGRTQAQTRRAS [L4N],3.44
17,KKFTTLGSKFRYSGRTQAQTRRAS [L4T],3.11
18,KKFATLGSKFRYSGRTQAQTRRAS [L4A],2.98
19,KKFPTLGSKFRYSGRTQAQTRRAS [L4P],3.8
20,KKFRTLGSKFRYSGRTQAQTRRAS [L4R],3.13
21,KKFKTLGSKFRYSGRTQAQTRRAS [L4K],3.33
22,KKFVTLGSKFRYSGRTQAQTRRAS [L4V],3.02
